From patent US20120282643A1

Molecular target: sulfite reductase tagged with a C-terminal GFP S11 (SEQ ID NO: 16)
Experiment: cell-based or functional assay

A Green Fluorescence (488/510) (clone A6) of 7.74, a Green Fluorescence (488/510) (clone A8) of 8.54 and a Green Fluorescence (488/510) (clone B3) of 13.9 were found for “Split-YFP S1-10 (T203Y) (from UniProt P42212 1-214)” in this work. The Green Fluorescence (488/510) (clone B4) was 16, the Green Fluorescence (488/510) (clone B6) was 8.08 and the Green Fluorescence (488/510) (clone B10) was 16.1. For the same substance, the Green Fluorescence (488/510) (clone C9) was 17.5, the Green Fluorescence (488/510) (clone D1) was 16.4 and the Green Fluorescence (488/510) (clone D2) was 18.5. It also gave a Green Fluorescence (488/510) (clone D5) of 17.8, a Green Fluorescence (488/510) (clone D7) of 17.4 and a Green Fluorescence (488/510) (clone D9) of 21. For the same substance, the Green Fluorescence (488/510) (clone D10) was 18.2, the Green Fluorescence (488/510) (clone D11) was 17.1 and the Green Fluorescence (488/510) (clone E1) was 12.3. For the same substance, the Green Fluorescence (488/510) (clone E3) was 17.9, the Green Fluorescence (488/510) (clone E4) was 17.4 and the Green Fluorescence (488/510) (clone E6) was 15.4. The Green Fluorescence (488/510) (clone E8) was 22.9, the Green Fluorescence (488/510) (clone E9) was 23.9 and the Green Fluorescence (488/510) (clone F1) was 15.8. It also gave a Green Fluorescence (488/510) (clone F6) of 11.5, a Green Fluorescence (488/510) (clone F7) of 17.7 and a Green Fluorescence (488/510) (clone F9) of 21.4. The Green Fluorescence (488/510) (clone F10) was 8.11, the Green Fluorescence (488/510) (clone F11) was 19 and the Green Fluorescence (488/510) (clone G9) was 18.6. The Green Fluorescence (488/510) (clone G10) was 17, the Green Fluorescence (488/510) (clone H4) was 9.39 and the Green Fluorescence (488/510) (clone H5) was 8.77. It also gave a Green Fluorescence (488/510) (clone H9) of 12.4, a Green Fluorescence (488/510) (clone H10) of 13.1 and a Ratio Yellow/Green Fluorescence (clone A6) of 18.9. It also gave a Ratio Yellow/Green Fluorescence (clone A8) of 17.5, a Ratio Yellow/Green Fluorescence (clone B3) of 10.5 and a Ratio Yellow/Green Fluorescence (clone B4) of 9.71. The Ratio Yellow/Green Fluorescence (clone B6) was 13.7, the Ratio Yellow/Green Fluorescence (clone B10) was 10.2 and the Ratio Yellow/Green Fluorescence (clone C9) was 9.2. The Ratio Yellow/Green Fluorescence (clone D1) was 9.41, the Ratio Yellow/Green Fluorescence (clone D2) was 8.3 and the Ratio Yellow/Green Fluorescence (clone D5) was 8.66. It also gave a Ratio Yellow/Green Fluorescence (clone D7) of 8.97, a Ratio Yellow/Green Fluorescence (clone D9) of 7.45 and a Ratio Yellow/Green Fluorescence (clone D10) of 7.74. The Ratio Yellow/Green Fluorescence (clone D11) was 8.31, the Ratio Yellow/Green Fluorescence (clone E1) was 11.3 and the Ratio Yellow/Green Fluorescence (clone E3) was 8.45. It also gave a Ratio Yellow/Green Fluorescence (clone E4) of 8.79, a Ratio Yellow/Green Fluorescence (clone E6) of 10.1 and a Ratio Yellow/Green Fluorescence (clone E8) of 7.21. The Ratio Yellow/Green Fluorescence (clone E9) was 6.93, the Ratio Yellow/Green Fluorescence (clone F1) was 10.1 and the Ratio Yellow/Green Fluorescence (clone F6) was 12.6. For the same substance, the Ratio Yellow/Green Fluorescence (clone F7) was 9.1, the Ratio Yellow/Green Fluorescence (clone F9) was 7.71 and the Ratio Yellow/Green Fluorescence (clone F10) was 14.3. It also gave a Ratio Yellow/Green Fluorescence (clone F11) of 8.74, a Ratio Yellow/Green Fluorescence (clone G9) of 9.14 and a Ratio Yellow/Green Fluorescence (clone G10) of 9.91. The Ratio Yellow/Green Fluorescence (clone H4) was 16.6, the Ratio Yellow/Green Fluorescence (clone H5) was 18.4 and the Ratio Yellow/Green Fluorescence (clone H9) was 13.5. For the same substance, the Ratio Yellow/Green Fluorescence (clone H10) was 13.3, the Yellow Fluorescence (510/532) (clone A6) was 146 and the Yellow Fluorescence (510/532) (clone A8) was 150. The Yellow Fluorescence (510/532) (clone B3) was 146, the Yellow Fluorescence (510/532) (clone B4) was 155 and the Yellow Fluorescence (510/532) (clone B6) was 111. The Yellow Fluorescence (510/532) (clone B10) was 165, the Yellow Fluorescence (510/532) (clone C9) was 161 and the Yellow Fluorescence (510/532) (clone D1) was 154. For the same substance, the Yellow Fluorescence (510/532) (clone D2) was 154, the Yellow Fluorescence (510/532) (clone D5) was 154 and the Yellow Fluorescence (510/532) (clone D7) was 156. It also gave a Yellow Fluorescence (510/532) (clone D9) of 156, a Yellow Fluorescence (510/532) (clone D10) of 141 and a Yellow Fluorescence (510/532) (clone D11) of 143. For the same substance, the Yellow Fluorescence (510/532) (clone E1) was 139, the Yellow Fluorescence (510/532) (clone E3) was 151 and the Yellow Fluorescence (510/532) (clone E4) was 153. For the same substance, the Yellow Fluorescence (510/532) (clone E6) was 155, the Yellow Fluorescence (510/532) (clone E8) was 165 and the Yellow Fluorescence (510/532) (clone E9) was 165. It also gave a Yellow Fluorescence (510/532) (clone F1) of 159, a Yellow Fluorescence (510/532) (clone F6) of 144 and a Yellow Fluorescence (510/532) (clone F7) of 161. For the same substance, the Yellow Fluorescence (510/532) (clone F9) was 165, the Yellow Fluorescence (510/532) (clone F10) was 116 and the Yellow Fluorescence (510/532) (clone F11) was 166. The Yellow Fluorescence (510/532) (clone G9) was 170, the Yellow Fluorescence (510/532) (clone G10) was 168 and the Yellow Fluorescence (510/532) (clone H4) was 156. For the same substance, the Yellow Fluorescence (510/532) (clone H5) was 161, the Yellow Fluorescence (510/532) (clone H9) was 168 and the Yellow Fluorescence (510/532) (clone H10) was 175.

A Green Fluorescence (488/510) (clone E10) of 21.4, a Ratio Yellow/Green Fluorescence (clone E10) of 7.33 and a Yellow Fluorescence (510/532) (clone E10) of 157 were found for “Split-YFP S1-10 (T203Y, D210V) (from UniProt P42212 1-214)” in this work.

A Green Fluorescence (488/510) (clone C6) of 5.1, a Ratio Yellow/Green Fluorescence (clone C6) of 20 and a Yellow Fluorescence (510/532) (clone C6) of 102 were found for “Split-YFP S1-10 (T203Y, Q204E) (from UniProt P42212 1-214)” in this work.

A Green Fluorescence (488/510) (clone F8) of 20.2, a Ratio Yellow/Green Fluorescence (clone F8) of 8.16 and a Yellow Fluorescence (510/532) (clone F8) of 165 were found for “Split-YFP S1-10 (T203Y, Q204H) (from UniProt P42212 1-214)” in this work.

A Green Fluorescence (488/510) (clone A3) of 1.8, a Ratio Yellow/Green Fluorescence (clone A3) of 42 and a Yellow Fluorescence (510/532) (clone A3) of 75.7 were found for “Split-YFP S1-10 (T203Y, T205A) (from UniProt P42212 1-214)” in this work.

A Green Fluorescence (488/510) (clone B9) of 14.7, a Ratio Yellow/Green Fluorescence (clone B9) of 10.9 and a Yellow Fluorescence (510/532) (clone B9) of 160 were found for “Split-YFP S1-10 (Y200F, T203Y) (from UniProt P42212 1-214)” in this work.
